What was measured:
[1] = molecular target: GFP-MED15PP (GFP-MED15CC with five Pro substitutions in the MED15 coiled-coil region); assay: synchronous light scattering (self-association / aggregation); details: 5 μM protein, 9 hours at 37 °C without agitation in 20 mM Tris pH 7.5 and 150 mM NaCl; parent: est. 620; read off a plot
[2] = molecular target: GFP-MED15PP (GFP-MED15CC with five Pro substitutions in the MED15 coiled-coil region); assay: GFP fluorescence of supernatant fraction (self-association / aggregation); details: 5 μM protein, 9 hours at 37 °C without agitation in 20 mM Tris pH 7.5 and 150 mM NaCl; parent: est. 0.50; read off a plot
[3] = molecular target: the molecule itself; assay: SEC; 2 mg/ml purified protein on Superdex 200 HR 10/30; 20 mM TrisHCl pH 7.4, 150 mM NaCl, 10% glycerol

| response [1] [a.u.] | other: Normalized GFP fluorescence (supernatant fraction) [2] | Molecule | stoichiometry N [3] |
| --- | --- | --- | --- |
| 180 | 0.83 | GFP-MED15CC (human MED15 prion-like domain, MED15-PrLD, residues 141-316, fused at the C-terminus of GFP) MED15PP (five Pro substitutions at heptad 'a' positions; residues not printed in this figure) |  |
|  |  | GFP-MED15CC (human MED15 prion-like domain, MED15-PrLD, residues 141-316, fused at the C-terminus of GFP) (domain or fragment, Mediator complex subunit 15 (MED15), human, prion-like domain with the Q-rich coiled-coil and Pro-rich regions, residues 141-316; No cleavage step is described; Dimer by SEC, native PAGE and DLS; source: E. coli BL21 Rosetta, pET21b, purified from the soluble fraction (two HisTrap Ni steps, RNase treatment, PD10); not shown: GFP, N-terminal, kept) MAVVSTATPQTQLQLQQVALQQQQQQQQFQQQQQAALQQQQQQQQQQQFQAQQSAMQQQFQAVVQQQQQLQQQQQQQQHLIKLHHQNQQQIQQQQQQLQRIAQLQLQQQQQQQQQQQQQQQQALQAQPPIQQPPMQQPQPPPSQALPQQLQQMHHTQHHQPPPQPQQPPVAQNQPS | 2 |

Source: paper PMC7997880, “MED15 prion-like domain forms a coiled-coil responsible for its amyloid conversion and propagation” (Communications Biology, 2021)
